Laboratory results taken from the supplement of paper PMC9170038.

System: MS2 coat protein
Test: apparent KD of MS2 coat protein; designed switch direction (-1 OFF switch, 1 ON switch): -1; higher = weaker reporter binding
Summary of the method: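 Designed RNA switches with common flanks were made on Illumina chips by stalled E. coli RNA polymerase. Titration with SNAP-549-labelled MS2 coat protein doubled from 0.7 or 1.5 nM up to 3 µM. Apparent KD is each design's median over clusters after curve-fitting normalised fluorescence.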

[1] = Eterna round: R95, input ligand: microRNA oligo, concentration not stated
[2] = Eterna round: R95, input ligand: FMN 200 uM
[3] = Eterna round: R95, input ligand: none
[4] = input ligand: microRNA oligo, concentration not stated

Sequence	apparent KD of MS2 coat protein [1] [nM]	apparent KD of MS2 coat protein (input ligand: FMN 200 uM) [nM]	apparent KD of MS2 coat protein (input ligand: none) [nM]	other results
UUUUAACAUGAGGAUCACCCAUGUGAGGAUAUCGAAAUUUAUAUUUAUAUUAAUAAAUCGAGAAGGCACAUUUU [JMF 76] (puzzle: Exclusion 1)	119			
GAUGCUUCGGCAUCUACAAGCUUUUUGCUCGUCUUAUUAACAUGAGGAUCACCCAUGUUAAUGAGACCUCAUGUAUU [Sensor v3 - turn-off variant 2 - 7] (puzzle: Sensor v3, turn-off variant 2)	14.9			apparent KD of MS2 coat protein [2]: 13.5 nM; apparent KD of MS2 coat protein [3]: 11.1 nM
GAGAAACAUGAGGAUCACCCAUGUAAGGAUAUGGCGAGAGCUGGAGUACUAGCGCCGUUCAGAAGGUACAUGAG [Eternabot (L2) Solution 27] (Eterna round: R97, puzzle: Exclusion 1)		218	95.9	
GAAUAGAGAGGAUAUGCGUAGUAGGUAGUAAGAUAUAUCUGACAUGAGGAUCACCCAUGUAGAAGGCUCAGAUC [EX2 #3] (Eterna round: R97, puzzle: Exclusion 2)		40.1	35.2	
UGAUCAGACCGAGGAUAUAUAUGGAGGACCCACGUGAGUGGGUCCACUACAUGAGGAUCACCCAUGUAGAAGGCGGUCUGAUCU [JL ENG2 1.86] (Eterna round: R96, puzzle: Exclusion NG 2)		29.5	13.3	apparent KD of MS2 coat protein [4]: 9.64 nM
AUAUAAAUAUAGGAUAUCGAAUUUAUUAAUUAUCGAGAAGGAUAAACAUGAGGAUCACCCAUGUGGUAUCAUGG [Mat - Exclusion 6 - JL Mod - D40] (puzzle: Exclusion 6)	270			
UCAAAGCUAGGAUAUACAUGAGGAUCACCCAUGUUAUCACCCAUCGGGUCUUGCUUUUGUAGAAGGAGCAAUAA [Xeinso] (puzzle: Exclusion 3)	25.6			
AUACUCUUUGUGAGGAUAUCGUUUUCUUUACGGUUCGAGAAGGCACAUGAGGAUCACCCAUGUUUGACGUGAAU [JR_BMOE4_Sub094] (puzzle: Brourd's mod of Exclusion 4)	21.2			
AAUCUGUGAGGAUAUGGUGAGUAGUGCCUGAGCGCUGCUCACCAGAAGGCACAUGAGGAUCACCCAUGUAUGAC [Mat - Exclusion 4 - Mod of JL - D2] (puzzle: Exclusion 4)	27.7			
ACCCAGUCAGGAUAUCCGGAGUUCCGCGAUGGCGGACGGUAGGAGAAGGGACAUGAGGAUCACCCAUGUAGAAA [EX4 B.17] (Eterna round: R97, puzzle: Exclusion 4)		179	34.7	
UGUGGACAUGAGGAUCACCCAUGUCAGCCGUGUCCACCGAGAGAGGAUAUUGGUCAACCAGGGACUAAGAAGGCUCAGAGCUGG [Eternabot solution 47] (Eterna round: R96, puzzle: Exclusion NG 3)		30.3	46.4	apparent KD of MS2 coat protein [4]: 37.4 nM
AUGAGCAGACGGAGAUCCAACAUGAGGAUCACCCAUGUCUCAUAAGCUUUUUGUUCAUCUUAUUGUACCUUGGUGCA [Mat - Sensor v3 - turn-off var 1 - JL Mod - D25] (puzzle: Sensor v3, turn-off variant 1)	30.5			apparent KD of MS2 coat protein [2]: 57.2 nM; apparent KD of MS2 coat protein [3]: 55.5 nM
AUCAGCUCGUGAGGAUAUACAUGAGGAUCACCCAUGUGAUCAAUAGCAGCUUCGGCUGCAUUAAUGUAGAAGGUACGAGCUGAU [ENG2/5-C3] (Eterna round: R96, puzzle: Exclusion NG 2)		114	961	apparent KD of MS2 coat protein [4]: 216 nM
UUUUAACAUGAGGAUCACCCAUGUGAGGAUAUCGAAAUUUAUAUUAAUAUUAUUUUAACGAGAAGGCACAUUUU [JMF 47] (puzzle: Exclusion 1)	67.2			
AGUUGGCGAGGAUAUACAUGAGGAUCACCCAUGUGAGGGAUACUAGUGAGGUCGAUUAGUAGAAGGCGCUGACA [Mat X3R4 m9] (Eterna round: R97, puzzle: Exclusion 3)		839	56.1	
UUUUUUUUGCGAGGAUAUGCUUUUAGUUAGUUAGCAGAAGGCGCGUUUCUUUUCUCCUCUUCUUACAUGAGGAUCACCCAUGUU [JR_ExcNG1_Sub034] (Eterna round: R96, puzzle: Exclusion NG 1)		55.7	54.1	apparent KD of MS2 coat protein [4]: 36.7 nM
GUCGAGUGAGGAUAUGGUGAGUAGUGCCUGAGCGCUGCUCACCAGAAGGCACAUGAGGAUCACCCAUGUAUGAC [Mat - Exclusion 4 - Mod of JL - D12] (puzzle: Exclusion 4)	17.8			
CCUCUACAUGAGGAUCACCCAUGUGAGGAUAUCUCGGAGCAACCACUUAAGGCGCUCCAGAGAAGGCACGUGUA [Erralaqu] (puzzle: Exclusion 1)	19.5			
UUUAUACAUGAGGAUCACCCAUGUGAGGAUAUGCUUUAUUAUUAUUAUUAUUAUUAUUGCAGAAGGUACAUUAU [LRO-Excl01-14] (Eterna round: R97, puzzle: Exclusion 1)		35.7	37.7	
CGGUAACAUGAGGAUCACCCAUGUGAGGAUAUCGUACGUUCGUCGAUAGACGAUCGUACGAGAAGGCAUGACCG [Mat - Exclusion 1 - Eli Mod - D33] (Eterna round: R97, puzzle: Exclusion 1)		21.4	43.9	
GUGAUCUAUCAUGUAAUGAACAUGAGGAUCACCCAUGUAGGCAAGUUUUUUGCUCGUCACAUAAUAAGAUAGAUCAC [Antenna 19 - Jieux - Sensor, turn-off variant 1] (Eterna round: R97, puzzle: Sensor, turn-off variant 1)		14.3	13.2	
UUUCCCUGUGUGAGGAUAUACUUGUUUGGGUUUUUGUAGAAGGCACAUGAGGAUCACCCAUGUACUCUGUCCUG [JR_BME4_Sub022] (puzzle: Brourd's mod of Exclusion 4)	22.1			
AAGGACCGUGUAGGAUAUGCACUGAAUAGGUCAGGAGGGUUCUUACACAUGAGGAUCACCCAUGUGUAGAAGGACGGAAGGUCA [Eternabot solution 25] (Eterna round: R96, puzzle: Exclusion NG 2)		12.7	15.2	apparent KD of MS2 coat protein [4]: 11.4 nM
AGCAUGAGAGAGGAUAUGGUCGCCGCAACAUGACCAGAAGGCUCAACAUGAGGAUCACCCAUGUGGCCCGGCUC [Eternabot (L1) Solution 33] (Eterna round: R97, puzzle: Exclusion 6)		33.2	19.5	
CUAAUACAUGUGAGGAUAUACGACUUGGAGACGGCGUAGAAGGUACAUGAGGAUCACCCAUGUGCGGGCUCCUU [Eternabot (L1) Solution 49] (Eterna round: R97, puzzle: Brourd's mod of Exclusion 4)		55.9	27.5	
GCUUUUGGGCAAGGAUAUCCUGCGCGGUUCCGGUUCGUGUCUGUCACAUGAGGAUCACCCAUGUGGGAGAAGGUGCCUGUGGUG [Design 72] (Eterna round: R96, puzzle: Exclusion NG 2)		28.3	18.4	apparent KD of MS2 coat protein [4]: 13.6 nM
